Results published in the Human Domainome abundance scans (Beltran et al. 2025).

B1: Ankyrin-2, residues 3571 to 3650; numbered along this chain, Q01484 (parent)
chain: ERLAYIADHLGFSWTELARELDFTEEQIHQIRIENPNSLQDQSHALLKYWLERDGKHATDTNLVECLTKINRMDIVHLME

Variants of: B1
Assay: abundance fitness (aPCA) (normalised: wild type 0, dead -1); higher = more abundant; growth selection in yeast, the domain comes from the species named
Settings: Homo sapiens

Abundance fitness of substitutions, site by site:
W14: S -0.812 | R -0.994 | A -0.572 | C -0.63 | P -0.958 | H -0.842 | K -1 | F -0.199 | E -1.13 | N -0.348 | Q -0.999 | Y -0.31 | M -0.394 | V -0.283 | L -0.268 | G -0.978
T15: K 0.079 | Q -0.083 | N -0.038 | C -0.062 | L 0.036 | D -0.195 | M -0.21 | V -0.009 | W -0.058 | G -0.042 | A -0.02 | R -0.057 | Y -0.433 | E -0.185 | F -0.277 | S 0.018 | P 0.01 | H -0.309
L3: Q -0.031 | G -0.181 | W -0.117 | E -0.289 | C -0.086 | S 0.043 | K -0.179 | N -0.074 | F 0.143 | Y -0.155 | H -0.038 | V 0.005 | M 0.028 | A -0.164 | R -0.077 | P -0.215 | T -0.019 | I 0.05
Y5: W -0.143 | N 0.386 | R -0.505 | H 0.013 | P -0.019 | V -0.084 | A 0.066 | C 0.137 | G -0.231 | M -0.559 | L 0.096
A4: M 0.004 | P -0.071 | W -0.11 | F 0.129 | R -0.007 | D 0.039 | G 0.052 | L -0.058 | H 0.016 | Y -0.075 | N -0.024 | K -0.029 | T 0.109 | E -0.017
I6: P -0.412 | V -0.126 | K -0.807 | S -0.642 | R -0.717 | W -0.485 | N -0.6
L10: Y -0.464 | D -0.509 | S -0.668 | A -0.64 | G -0.704 | R -1.09 | W -0.498 | H -0.948 | P -0.819 | V -0.014 | C -0.184 | M -0.205 | Q -0.791 | K -0.911
D8: R 0.031 | T 0.088 | W -0.342 | E -0.075 | A 0.034 | S 0.051 | I -0.237 | P 0.011 | L 0.052 | K -0.006 | V -0.232 | Q 0.234 | G -0.116
E25: C -0.22 | H -0.072 | A -0.006 | D 0.016 | I 0.009 | F -0.199 | G -0.074
G11: F -0.039 | W -0.277 | Q -0.006 | L -0.117 | A -0.058 | D -0.052 | N 0.336 | S 0.015 | H -0.111 | I -0.271 | K -0.054 | R -0.074 | T -0.141 | M -0.223 | Y -0.123 | C -0.106 | P -0.536
A7: K -0.041 | L -0.008 | Q -0.089 | G 0.12 | E -0.265 | M -0.045 | T 0.029 | S 0.052 | W -0.053 | R 0.087 | P -0.36
T24: V -0.248 | Q 0.025 | W -0.409 | K 0.162 | G -0.014 | H -0.075 | A -0.053 | R -0.027 | N -0.005 | P -0.138 | L -0.144 | I -0.154 | E -0.02 | C -0.193 | Y 0.053 | S -0.025 | D 0.064 | F -0.053
F12: S 0.063 | Q -0.132 | Y -0.195
